Measurements published in patent US6710026B1, “Protein domains in the hepatic glycogen-targetting subunit of protein phosphatase 1 and methods of making and using the same” (Medical Research Counsel, priority 1998, dated 2004).
Where no end group is shown, it is not given here.

B1: GST-GL(1-271): GST fused to GL residues 1-271 (protein)
chain: MAVDIEYSYSSMAPSLRRERFTFKISPKLNKPLRPCIQLGSKDEAGRMVAPTVQEKKVKKRVSFADNQGLALTMVKVFSEFDDPLDIPFNITELLDNIVSLTTAESESFVLDFPQPSADYLDFRNRLQTNHVCLENCVLKEKAIAGTVKVQNLAFEKVVKIRMTFDTWKSFTDFPCQYVKDTYAGSDRDTFSFDISLPEKIQSYERMEFAVCYECNGQSYWDSNKGKNYRITRAELRSTQGMTEPYNGPDFGISFDQFGSPRCSFGLFPEW
modifications: left off: a dimerising Fc or GST
B2: GST-GL(1-94): GST fused to GL residues 1-94 (protein)
chain: MAVDIEYSYSSMAPSLRRERFTFKISPKLNKPLRPCIQLGSKDEAGRMVAPTVQEKKVKKRVSFADNQGLALTMVKVFSEFDDPLDIPFNITEL
modifications: left off: a dimerising Fc or GST
B3: GST-GL(216-284): GST fused to GL residues 216-284 (protein)
chain: {GST}-NGQSYWDSNKGKNYRITRAELRSTQGMTEPYNGPDFGISFDQFGSPRCSFGLFPEWPSYLGYEKLGPYY
B4: GST-GL(94-284): GST fused to GL residues 94-284 (protein)
chain: LLDNIVSLTTAESESFVLDFPQPSADYLDFRNRLQTNHVCLENCVLKEKAIAGTVKVQNLAFEKVVKIRMTFDTWKSFTDFPCQYVKDTYAGSDRDTFSFDISLPEKIQSYERMEFAVCYECNGQSYWDSNKGKNYRITRAELRSTQGMTEPYNGPDFGISFDQFGSPRCSFGLFPEWPSYLGYEKLGPYY
modifications: left off: a dimerising Fc or GST
B5: GST-GL: glutathione S-transferase fused to the full-length GL coding region (residues 1-284) of rat liver GL (protein)
chain: MAVDIEYSYSSMAPSLRRERFTFKISPKLNKPLRPCIQLGSKDEAGRMVAPTVQEKKVKKRVSFADNQGLALTMVKVFSEFDDPLDIPFNITELLDNIVSLTTAESESFVLDFPQPSADYLDFRNRLQTNHVCLENCVLKEKAIAGTVKVQNLAFEKVVKIRMTFDTWKSFTDFPCQYVKDTYAGSDRDTFSFDISLPEKIQSYERMEFAVCYECNGQSYWDSNKGKNYRITRAELRSTQGMTEPYNGPDFGISFDQFGSPRCSFGLFPEWPSYLGYEKLGPYY
modifications: left off: a dimerising Fc or GST
notes: glutathione S-transferase fused to the full-length GL coding region (residues 1-284) of rat liver GL
B6: GST-GL(1-257): GST fused to GL residues 1-257 (protein)
chain: MAVDIEYSYSSMAPSLRRERFTFKISPKLNKPLRPCIQLGSKDEAGRMVAPTVQEKKVKKRVSFADNQGLALTMVKVFSEFDDPLDIPFNITELLDNIVSLTTAESESFVLDFPQPSADYLDFRNRLQTNHVCLENCVLKEKAIAGTVKVQNLAFEKVVKIRMTFDTWKSFTDFPCQYVKDTYAGSDRDTFSFDISLPEKIQSYERMEFAVCYECNGQSYWDSNKGKNYRITRAELRSTQGMTEPYNGPDFGISFDQ
modifications: left off: a dimerising Fc or GST
B7: GST-GL(59-284): GST fused to GL residues 59-284 (protein)
chain: KKRVSFADNQGLALTMVKVFSEFDDPLDIPFNITELLDNIVSLTTAESESFVLDFPQPSADYLDFRNRLQTNHVCLENCVLKEKAIAGTVKVQNLAFEKVVKIRMTFDTWKSFTDFPCQYVKDTYAGSDRDTFSFDISLPEKIQSYERMEFAVCYECNGQSYWDSNKGKNYRITRAELRSTQGMTEPYNGPDFGISFDQFGSPRCSFGLFPEWPSYLGYEKLGPYY
modifications: left off: a dimerising Fc or GST
B8: GST-GL(1-216): GST fused to GL residues 1-216 (protein)
chain: MAVDIEYSYSSMAPSLRRERFTFKISPKLNKPLRPCIQLGSKDEAGRMVAPTVQEKKVKKRVSFADNQGLALTMVKVFSEFDDPLDIPFNITELLDNIVSLTTAESESFVLDFPQPSADYLDFRNRLQTNHVCLENCVLKEKAIAGTVKVQNLAFEKVVKIRMTFDTWKSFTDFPCQYVKDTYAGSDRDTFSFDISLPEKIQSYERMEFAVCYECN
modifications: left off: a dimerising Fc or GST
B9: GST-GL(134-284): GST fused to GL residues 134-284 (protein)
chain: LENCVLKEKAIAGTVKVQNLAFEKVVKIRMTFDTWKSFTDFPCQYVKDTYAGSDRDTFSFDISLPEKIQSYERMEFAVCYECNGQSYWDSNKGKNYRITRAELRSTQGMTEPYNGPDFGISFDQFGSPRCSFGLFPEWPSYLGYEKLGPYY
modifications: left off: a dimerising Fc or GST
B10: GST-GL(170-284): GST fused to GL residues 170-284 (protein)
chain: SFTDFPCQYVKDTYAGSDRDTFSFDISLPEKIQSYERMEFAVCYECNGQSYWDSNKGKNYRITRAELRSTQGMTEPYNGPDFGISFDQFGSPRCSFGLFPEWPSYLGYEKLGPYY
modifications: left off: a dimerising Fc or GST

Experiments:
phosphorylase a = target: T1, phosphorylase a (Oryctolagus cuniculus, UniProt P00489); experiment: Blot overlay binding of 32P-labelled phosphorylase a to GST-GL fusion proteins; conditions: 100 nM 32P-phosphorylase a, fusion proteins on nitrocellulose membranes
T1 sequence (P00489 2-843 limits assumed): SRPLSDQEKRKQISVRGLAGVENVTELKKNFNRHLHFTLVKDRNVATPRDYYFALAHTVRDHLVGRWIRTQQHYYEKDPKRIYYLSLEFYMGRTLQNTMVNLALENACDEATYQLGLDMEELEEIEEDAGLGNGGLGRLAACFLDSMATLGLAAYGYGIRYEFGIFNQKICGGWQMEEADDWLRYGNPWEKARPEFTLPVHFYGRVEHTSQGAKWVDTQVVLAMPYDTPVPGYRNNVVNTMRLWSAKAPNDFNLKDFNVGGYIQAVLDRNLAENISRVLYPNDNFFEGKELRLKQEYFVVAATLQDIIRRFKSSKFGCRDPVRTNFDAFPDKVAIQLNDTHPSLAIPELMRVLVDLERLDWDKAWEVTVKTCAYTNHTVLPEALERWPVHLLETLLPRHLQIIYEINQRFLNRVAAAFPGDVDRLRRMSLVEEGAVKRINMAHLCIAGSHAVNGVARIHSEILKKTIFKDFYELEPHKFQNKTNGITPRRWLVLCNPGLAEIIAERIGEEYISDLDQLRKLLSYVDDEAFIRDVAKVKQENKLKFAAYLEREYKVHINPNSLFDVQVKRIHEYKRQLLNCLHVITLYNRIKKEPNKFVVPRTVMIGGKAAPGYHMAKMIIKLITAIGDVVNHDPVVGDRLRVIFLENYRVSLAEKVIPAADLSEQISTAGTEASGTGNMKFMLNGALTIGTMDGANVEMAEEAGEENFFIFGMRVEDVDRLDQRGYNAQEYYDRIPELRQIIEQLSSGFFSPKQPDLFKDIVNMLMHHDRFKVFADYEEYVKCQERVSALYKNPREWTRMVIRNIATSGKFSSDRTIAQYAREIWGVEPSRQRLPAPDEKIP
Procedure: (§1) GST-GL fusion proteins were separated on SDS-PAGE and transferred to nitrocellulose membranes. They were probed with digoxigenin-PP1γ. Alternatively they were examined for binding of ^32P-labelled phosphorylase a. Non-specific binding to the membranes was blocked by incubation in 5% (w/v) marvel dried milk powder, 25 mM Tris/HCI pH 7.5, 500 mM NaCl for 16 hours. The samples were then probed for 3 h with ^32P-labelled phosphorylase a (100 nM) in 25 mM Tris/HCl pH 7.5, 250 mM NaCl, 1 mg/ml bovine serum albumin. The membranes were subsequently washed (3×30 min) with 25 mM Tris/HCl pH 7.5 before autoradiography.

PP1 = conditions: recent studies; cited from earlier work
PP1GL complex = conditions: previous experiments; cited from earlier work
PP1γ = PP1γ (Homo sapiens, UniProt P36873); experiment: Blot overlay binding of digoxigenin-labelled PP1γ to GST-GL fusion proteins; conditions: fusion proteins on nitrocellulose membranes
Procedure: as §1

[1] = Co-sedimentation of GST-GL fusion proteins with hepatic glycogen; type: binding, rabbit
Procedure: Protein free glycogen was prepared by the following protocol. Glycogen-protein particles were isolated from the livers of New Zealand White rabbits. Protein was then stripped from the glycogen by boiling for 5 min in 1% (w/v) sodium dodecyl sulphate (SDS). The suspension was cooled to room temperature and centrifuged for 60 min at 100,000×g. The 100,000×g pellet was then resuspended in water, and the centrifugation and resuspension procedure repeated a further two times in order to completely remove residual SDS and protein. Any contaminating nucleotides were removed by incubating the glycogen for 15 min with mixed bed resin, AG 501-X8(D). The resin was removed by filtration and the glycogen concentration determined by the phenol/sulphuric acid method.
Protein free glycogen (10 mg/ml) in 50 mM Tris/HCl pH 7.5, 150 mM NaCl, 0.1% (v/v) 2-mercaptoethanol, 0.02% (w/v) Brij-35, 0.1 mg/ml bovine serum albumin was mixed with GST-GL fusion proteins (50 nM). […] The supernatant and pellet fractions were denatured in SDS, subjected to SDS-polyacrylamide gel electrophoresis and transferred to nitrocellulose. […]

PP1γ, sequence (P36873 whole entry, the tested form may be a part): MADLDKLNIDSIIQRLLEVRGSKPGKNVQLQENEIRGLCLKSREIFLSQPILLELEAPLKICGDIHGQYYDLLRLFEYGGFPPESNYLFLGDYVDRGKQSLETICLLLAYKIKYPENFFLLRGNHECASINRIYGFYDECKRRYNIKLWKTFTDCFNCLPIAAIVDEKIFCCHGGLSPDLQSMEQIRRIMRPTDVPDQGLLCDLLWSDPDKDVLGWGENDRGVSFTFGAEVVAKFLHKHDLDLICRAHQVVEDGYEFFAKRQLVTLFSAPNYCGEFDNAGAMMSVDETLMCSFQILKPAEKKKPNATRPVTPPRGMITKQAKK

Molecule	binding of 32P-labelled phosphorylase a (phosphorylase a)	binding of digoxigenin-labelled PP1γ (PP1γ)	other results
GST-GL(257-284): GST fused to GL residues 257-284 ({GST}-QFGSPRCSFGLFPEWPSYLGYEKLGPYY)	found to bind		
GM 63-75: peptide of amino acids 63 to 75 of GM (RVSFADSFGFNLV; UniProt Q16821 63-75, looked up, fragment)			binding to PP1 (PP1): shown to bind PP1
M110 1-38: peptide comprising the amino terminal 38 residues of the M110 subunit of the myosin targeting subunit of PP1 (MKMADAKQKRNEQLKRWIGSETDLEPPVVKRQKTKVKF; UniProt O14974 1-38, looked up, fragment)			disruption of the PP1GL complex (PP1GL complex): could disrupt the PP1GL complex
GM 63-93: peptide comprising residues 63-93 of the skeletal muscle glycogen targeting subunit (RVSFADSFGFNLVSVKEFDCWELPSASTTFD; UniProt Q16821 63-93, looked up, fragment)			disruption of the PP1GL complex (PP1GL complex): did not abolish binding of GL to PP1
GST-GL(269-284): GST fused to GL residues 269-284, the C-terminal 16 amino acids ({GST}-PEWPSYLGYEKLGPYY)	found to bind		
GST-GL(1-59): GST fused to GL residues 1-59 ({GST}-MAVDIEYSYSSMAPSLRRERFTFKISPKLNKPLRPCIQLGSKDEAGRMVAPTVQEKKVK)		not	
B1	not		
B2		binds	
B3	found to bind		
B4		not	co-sedimentation with glycogen (binding to glycogen) ([1]; protein free glycogen 10 mg/ml, fusion protein 50 nM, 100,000×g, immunoblot of supernatant and pellet): detected exclusively in the 100,000×g pellet
B5	found to bind	binds	aggregation (pelleted in the absence of glycogen) ([1]; 100 000×g for 1 h, absence of glycogen): strong tendency to aggregate
B6	not		
B7		binds	
B8	not		
B9		not	
B10		not	
